Reference: patent US20190309072A1 (published 2019)
Where a chain is given by its changes, count along the chain named.

T1: human ITGa3 on human-derived cell lines (human, UniProt P26006 33-1051)
T1 chain: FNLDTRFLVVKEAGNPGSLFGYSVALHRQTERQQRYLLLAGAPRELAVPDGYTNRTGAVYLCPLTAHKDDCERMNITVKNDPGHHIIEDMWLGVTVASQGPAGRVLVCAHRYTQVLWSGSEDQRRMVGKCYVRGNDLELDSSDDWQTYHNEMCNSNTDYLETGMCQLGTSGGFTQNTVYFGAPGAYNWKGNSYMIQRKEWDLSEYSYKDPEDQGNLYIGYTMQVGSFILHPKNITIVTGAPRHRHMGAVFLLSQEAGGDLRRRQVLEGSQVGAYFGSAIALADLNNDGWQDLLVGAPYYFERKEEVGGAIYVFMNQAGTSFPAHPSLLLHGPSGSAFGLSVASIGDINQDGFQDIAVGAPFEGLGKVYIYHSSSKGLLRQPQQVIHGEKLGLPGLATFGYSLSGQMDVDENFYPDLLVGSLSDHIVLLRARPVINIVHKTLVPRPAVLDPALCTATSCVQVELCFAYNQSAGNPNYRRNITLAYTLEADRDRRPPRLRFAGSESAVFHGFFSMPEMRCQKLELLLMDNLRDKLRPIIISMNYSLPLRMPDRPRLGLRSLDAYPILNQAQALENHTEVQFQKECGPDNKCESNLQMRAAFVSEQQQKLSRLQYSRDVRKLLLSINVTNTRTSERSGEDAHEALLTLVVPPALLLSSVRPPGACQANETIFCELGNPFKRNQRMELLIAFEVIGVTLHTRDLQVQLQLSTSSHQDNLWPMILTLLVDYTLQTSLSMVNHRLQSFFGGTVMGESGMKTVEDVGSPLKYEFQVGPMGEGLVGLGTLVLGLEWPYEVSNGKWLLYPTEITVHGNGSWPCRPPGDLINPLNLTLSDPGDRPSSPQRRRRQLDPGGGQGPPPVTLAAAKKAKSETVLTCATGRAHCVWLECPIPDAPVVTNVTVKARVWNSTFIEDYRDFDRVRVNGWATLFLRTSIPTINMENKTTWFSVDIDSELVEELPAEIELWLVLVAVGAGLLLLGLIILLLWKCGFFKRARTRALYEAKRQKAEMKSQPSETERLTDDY

T2: cynomolgus monkey ITGa3 on cynomolgus-derived primary kidney epithelial cells (cynomolgus monkey, UniProt A0A2K5VFR2 17-1035)
T2 chain: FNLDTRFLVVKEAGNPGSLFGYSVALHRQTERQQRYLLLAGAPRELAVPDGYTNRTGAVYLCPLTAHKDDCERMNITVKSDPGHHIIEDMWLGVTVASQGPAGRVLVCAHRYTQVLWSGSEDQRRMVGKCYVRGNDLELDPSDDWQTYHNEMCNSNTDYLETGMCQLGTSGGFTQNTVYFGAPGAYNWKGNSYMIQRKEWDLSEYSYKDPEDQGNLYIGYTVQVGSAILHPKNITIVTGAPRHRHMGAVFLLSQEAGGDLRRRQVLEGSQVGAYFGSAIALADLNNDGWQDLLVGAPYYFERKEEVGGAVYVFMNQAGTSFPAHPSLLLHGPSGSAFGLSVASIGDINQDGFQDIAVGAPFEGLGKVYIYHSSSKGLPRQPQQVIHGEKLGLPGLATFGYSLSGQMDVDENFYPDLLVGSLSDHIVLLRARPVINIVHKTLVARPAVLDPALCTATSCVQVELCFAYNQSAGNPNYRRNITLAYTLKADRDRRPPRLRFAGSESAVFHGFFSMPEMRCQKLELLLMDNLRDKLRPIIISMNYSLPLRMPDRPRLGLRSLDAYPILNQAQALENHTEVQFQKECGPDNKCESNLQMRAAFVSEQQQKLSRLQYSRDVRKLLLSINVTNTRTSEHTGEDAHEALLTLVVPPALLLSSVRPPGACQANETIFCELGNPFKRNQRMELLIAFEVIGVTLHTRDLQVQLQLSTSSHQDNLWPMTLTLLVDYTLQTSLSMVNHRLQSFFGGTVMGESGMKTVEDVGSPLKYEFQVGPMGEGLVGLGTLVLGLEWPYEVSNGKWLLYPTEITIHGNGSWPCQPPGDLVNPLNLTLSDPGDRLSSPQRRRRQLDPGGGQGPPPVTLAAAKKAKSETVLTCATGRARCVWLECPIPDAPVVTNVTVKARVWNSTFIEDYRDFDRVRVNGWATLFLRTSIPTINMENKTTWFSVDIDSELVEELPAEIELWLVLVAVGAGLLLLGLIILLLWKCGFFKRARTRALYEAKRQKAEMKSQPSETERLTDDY

T3: human ITGa3 protein (human, UniProt P26006 33-991)
T3 chain: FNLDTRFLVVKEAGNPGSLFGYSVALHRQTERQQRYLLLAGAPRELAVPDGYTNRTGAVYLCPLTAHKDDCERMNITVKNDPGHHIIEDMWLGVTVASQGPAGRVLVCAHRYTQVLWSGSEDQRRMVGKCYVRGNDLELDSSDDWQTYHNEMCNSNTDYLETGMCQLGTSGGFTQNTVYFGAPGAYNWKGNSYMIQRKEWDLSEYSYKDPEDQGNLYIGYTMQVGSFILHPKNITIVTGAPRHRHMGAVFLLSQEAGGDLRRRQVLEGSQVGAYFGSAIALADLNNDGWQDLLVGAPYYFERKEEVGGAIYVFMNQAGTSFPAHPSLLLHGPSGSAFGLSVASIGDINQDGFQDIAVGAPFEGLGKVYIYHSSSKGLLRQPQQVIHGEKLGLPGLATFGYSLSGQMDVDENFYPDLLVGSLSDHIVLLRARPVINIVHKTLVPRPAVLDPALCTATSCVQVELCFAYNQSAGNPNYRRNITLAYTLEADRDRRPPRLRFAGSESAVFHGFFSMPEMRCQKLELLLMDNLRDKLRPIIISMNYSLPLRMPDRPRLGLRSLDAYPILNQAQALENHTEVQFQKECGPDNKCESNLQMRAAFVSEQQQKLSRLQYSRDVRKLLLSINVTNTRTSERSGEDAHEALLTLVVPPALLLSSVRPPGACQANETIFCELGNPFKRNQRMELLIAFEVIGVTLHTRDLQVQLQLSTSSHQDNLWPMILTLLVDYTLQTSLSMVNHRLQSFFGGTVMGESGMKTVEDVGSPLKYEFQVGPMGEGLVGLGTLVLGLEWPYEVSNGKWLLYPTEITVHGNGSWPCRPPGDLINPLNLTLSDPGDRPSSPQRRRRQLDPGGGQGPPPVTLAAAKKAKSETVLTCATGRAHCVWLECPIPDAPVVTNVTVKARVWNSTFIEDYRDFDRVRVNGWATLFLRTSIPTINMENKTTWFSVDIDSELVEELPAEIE

B1: anti-ITGa3 huVM2 Hc2T62G/Lc1 antibody (antibody, V domains shown)
VH: QVQLVQSGAEVKKPGSSVKVSCKASGYTFTEYIIHWVRQAPGQGLEWIGWFYPESGSVKYNEGFKGRATITADKSTSTAYMELSSLRSEDTAVYYCARHEERDYYGYYAMDYWGQGTTVTVSS
VL: DIQMTQSPSSLSASVGDRVTITCSASSSISSNYLHWYQQKPGKVPKLLIYRTSNLASGVPSRFSGSGSGTDYTLTISSLQPEDVATYYCQQGSSIPRFTSGGGTKVEIKR
B2: ITGa3-VM2 (antibody, V domains shown)
VH: EVQLQESGAELVKPGTSVRLSCKASGYTFTEYIIHWVKQRSGQGLEWIGWFYPESGSVKYNETFKGRATLTADKSSSTVYMELSRLTSEDSAVYFCARHEERDYYGYYAMDYWGQGTSVTVSS
VL: DIVMTQTPTTLAASPGEKIIITCSASSSISSNYLHWYQQKPGFSPKLLIYRTSNLASGVPARFSGSGSGTSYSLTIGTMEAEDVATYYCQQGSSIPRFTSGSGTKLEIK
B3: Lc1/Hc1S (VH of SEQ ID NO: 4 and VL of SEQ ID NO: 12) (antibody, V domains shown)
VH: B1 VH with N61S, G63T, I70L
VL: DIQMTQSPSSLSASVGDRVIITCSASSSISSNYLHWYQQKPGKVPKLLIYRTSNLASGVPSRFSGSGSGTDYTLTISSLQPEDVATYYCQQGSSIPRFTSGGGTKVEIK
B4: Lc2/Hc2A (antibody, V domains shown)
VH: B1 VH with G63A
VL: B3 VL
B5: Lc1/Hc1G (antibody, V domains shown)
VH: B1 VH with I70L
VL: B3 VL with I20T
B6: Lc1/Hc2A (antibody, V domains shown)
VH: B1 VH with G63A
VL: B3 VL with I20T
B7: Lc1/Hc1 (antibody, V domains shown)
VH: B1 VH with G63T, I70L
VL: B3 VL with I20T
B8: Lc1/Hc1A (antibody, V domains shown)
VH: B1 VH with G63A, I70L
VL: B3 VL with I20T
B9: Lc1/Hc2 (antibody, V domains shown)
VH: B1 VH with G63T
VL: B3 VL with I20T
B10: Lc2/Hc1 (antibody, V domains shown)
VH: B1 VH with G63T, I70L
VL: B3 VL
B11: Lc2/Hc2S (antibody, V domains shown)
VH: B1 VH with N61S, G63T
VL: B3 VL
B12: Lc2/Hc2 (antibody, V domains shown)
VH: B1 VH with G63T
VL: B3 VL
B13: Lc2/Hc1A (antibody, V domains shown)
VH: B1 VH with G63A, I70L
VL: B3 VL
B14: Lc1/Hc1S (antibody, V domains shown)
VH: B1 VH with N61S, G63T, I70L
VL: B3 VL with I20T
B15: Lc2/Hc2G (antibody, V domains shown)
VH: B1 VH
VL: B3 VL
B16: Lc1/Hc2S (antibody, V domains shown)
VH: B1 VH with N61S, G63T
VL: B3 VL with I20T

Target: T1, human ITGa3 on human-derived cell lines
Assay: FACS; human H292 cells

Row | Binder | Kd [pM]
1 | B1 | 270

Target: T2, cynomolgus monkey ITGa3 on …
Assay: FACS; cyno primary kidney epithelial cells

Row | Binder | Kd [pM]
2 | B1 | 170

Target: T3, human ITGa3 protein
Assay: ELISA; apparent Kd

Row | Binder | Kd [pM]
3 | B2 | 230
4 | B3 | 180
5 | B4 | 240
6 | B5 | 230
7 | B6 | 270
8 | B1 | 180
9 | B7 | 180
10 | B8 | 320
11 | B9 | 70
12 | B10 | 180
13 | B11 | 240
14 | B12 | 100
15 | B13 | 230
16 | B14 | 180
17 | B15 | 180
18 | B16 | 320
